{
  "source": "patent US20050008648A1",
  "about": "(BOARD OF TRUSTEES OF THE UNIVERSITY OF ILLINOIS, published 2005)",
  "proteins": {"B1": {"name": "Human deoxycytidine kinase (dCK) (enzyme)", "chain": "not shown", "notes": "Made in E. coli with a His-tag that was cleaved by thrombin; The selenomethionine-substituted protein was used for MAD phasing; Residues 1 to 19 were not seen in the electron density; Crystallized with dC, ara-C or gemcitabine and ADP; also called human dCK; wild type dCK"}},
  "biological_target": "the molecule itself",
  "assay": "X-ray crystal structure",
  "data": [
    {"protein": "B1", "values": [
      {"measurement": "binding result", "result": "binds"}
    ]}
  ]
}
